From patent publication US20170073664A1

Experiments:
Assay in all cases: cell_activity
[1] = test system: AAVS-SBI TALEN left (pZT-AAVS1 L1); settings: pair with right TALEN, 300 ng donor; control 111
eGFP-TALEN-18-right = settings: pair; clone 6F HEK293; control 324; 95.6% positive in flow
eGFP-TALEN-18-Left = settings: pair; clone 6F HEK293; control 324; 95.6% positive in flow
AAVS original TALEN left = settings: pair with right TALEN, HEK293F, 300 ng donor; control 111
[2] = test system: AAVS original TALEN right; settings: pair with left TALEN, HEK293F, 300 ng donor; control 111
[3] = test system: AAVS-SBI TALEN right (pZT-AAVS1 R1); settings: pair with left TALEN, 300 ng donor; control 111

Sequence: CCCCTCCACCCCACAGT (double strand) [AAVS left half-site without first T]
- activity (blasticidin-resistant colonies) [1]: 2800

Sequence: CGAGGAGCTGTTCA (double strand) [eGFP TALEN right half-site (TALEN reads complement)]
- activity (blasticidin colonies per 10^6 cells) (eGFP-TALEN-18-right): 1080

Sequence: TCCACCGGTCGCCA (double strand) [eGFP TALEN left half-site]
- activity (blasticidin colonies per 10^6 cells) (eGFP-TALEN-18-Left): 1080

Sequence: TCCCCTCCACCCCACAGT (double strand) [AAVS left TALEN half-site]
- activity (blasticidin-resistant colonies) (AAVS original TALEN left): 1420

Sequence: TTTTCTGTCACCAATCCT (double strand) [AAVS right TALEN half-site]
- activity (blasticidin-resistant colonies) [2]: 1420
- activity (blasticidin-resistant colonies) [3]: 2800
